This is an account of results in patent publication US20240301061A1.

Assay [1] deals with CD3ε/δ (UniProt P07766). The assay can be described thus: SPR.
In assay [2] the target is CD3ε/δ (UniProt P07766). Nature of the assay: SPR, antibody captured on anti-human Fc surface. (In general: SPR reads the build-up and loss of mass on a sensor chip optically.)

Chain of CD3ε/δ (P07766 23-126, stated change not applied, chain 1 of 2): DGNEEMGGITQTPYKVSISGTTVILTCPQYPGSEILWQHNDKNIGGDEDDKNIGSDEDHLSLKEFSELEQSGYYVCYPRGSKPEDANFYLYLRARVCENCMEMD
Chain of CD3ε/δ (P04234 22-105, stated change not applied, chain 2 of 2, further chain): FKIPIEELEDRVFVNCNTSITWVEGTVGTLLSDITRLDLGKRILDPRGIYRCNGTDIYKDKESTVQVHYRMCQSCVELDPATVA

B1: humanized sp34 scFv BG561P (Fc fusion, not shown: a dimerising Fc or GST)
scFv: EVQLVESGGGLVQPGGSLRLSCAASGFTFNTYAMNWVRQAPGKGLEWVARIRSKYNNYATYYADSVKDRFTISRDDAKNSLYLQMNSLRAEDTAVYYCVRHGNFGNSYVSWFAYWGQGTLVTVSSGGGGSGGGGSGGGGSEIVLTQSPATLSVSPGERATLSCRSSTGAVTTSNYANWVQQKPGQAPRGLIGGTNKRAPGIPARFSGSLSGDEATLTISSLQSEDFAVYYCALWYSNLWVFGGGTKVEIK
In the assay with CD3ε/δ [1], B1 came in with a Kd of 25.9 nM, a koff of 0.00188 s⁻¹ and a kon of 72500 M⁻¹ s⁻¹.

B2: chimeric sp34 (antibody, V domains shown)
VH: EVQLVESGGGLVQPKGSLKLSCAASGFTFNTYAMNWVRQAPGKGLEWVARIRSKYNNYATYYADSVKDRFTISRDDSQSILYLQMNNLKTEDTAMYYCVRHGNFGNSYVSWFAYWGQGTLVTVSS
VL: QAVVTQESALTTSPGETVTLTCRSSTGAVTTSNYANWVQEKPDHLFTGLIGGTNKRAPGVPARFSGSLIGDKAALTITGAQTEDEAIYFCALWYSNLWVFGGGTKLTVL
For B2, in the assay with CD3ε/δ [2], the Kd stood at 27.1 nM, the koff was 0.00296 s⁻¹ and the kon is 109000 M⁻¹ s⁻¹.

As usually defined, the Kd is a measure of binding affinity in units of concentration. In general, koff refers to the rate constant with which the complex falls apart. A low value points to slow dissociation. One may read the kon as the rate constant with which the complex forms. Low values mean slower complex formation, high ones faster complex formation.
